Results published in patent US20230242658A1 (published 2023).
Like-named read-outs stand apart in the source and are kept apart here.

Assays:
[1] = biological target: T1, human 4-1BB on CHO-K1 cells (human, UniProt Q07011 24-255); experiment: FACS
[2] = biological target: T2, cynomolgus monkey 4-1BB on CHO-K1 cells (cynomolgus monkey); experiment: FACS; FIG. 12D
T2 chain: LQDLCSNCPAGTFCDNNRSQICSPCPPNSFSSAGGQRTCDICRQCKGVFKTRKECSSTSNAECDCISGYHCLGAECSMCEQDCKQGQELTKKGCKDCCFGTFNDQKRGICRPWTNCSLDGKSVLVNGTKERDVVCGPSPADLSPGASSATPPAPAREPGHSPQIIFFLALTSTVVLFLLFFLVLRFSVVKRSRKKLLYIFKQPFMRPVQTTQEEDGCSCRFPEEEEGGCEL

[3] = biological target: T1, human 4-1BB on CHO-K1 cells; experiment: FACS blocking of 4-1BBL
[4] = biological target: T1, human 4-1BB on CHO-K1 cells; experiment: FACS; remark: listed apart in the source
Target sequence in this assay (Q07011 24-255): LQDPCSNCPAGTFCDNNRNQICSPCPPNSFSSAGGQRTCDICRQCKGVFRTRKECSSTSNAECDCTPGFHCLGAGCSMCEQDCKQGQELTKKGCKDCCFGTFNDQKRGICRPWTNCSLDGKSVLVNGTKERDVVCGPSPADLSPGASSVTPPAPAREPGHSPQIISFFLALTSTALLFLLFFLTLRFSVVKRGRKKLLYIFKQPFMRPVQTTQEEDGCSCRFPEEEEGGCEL

[5] = biological target: T2, cynomolgus monkey 4-1BB on CHO-K1 cells; experiment: FACS; FIG. 12A
[6] = biological target: T1, human 4-1BB on CHO-K1 cells; experiment: FACS blocking of 4-1BBL; remark: listed apart in the source
Target sequence in this assay (Q07011 24-255): as above

[7] = biological target: T2, cynomolgus monkey 4-1BB on CHO-K1 cells; experiment: FACS; FIG. 12B
[8] = biological target: T2, cynomolgus monkey 4-1BB on CHO-K1 cells; experiment: FACS; FIG. 12J
[9] = biological target: T1, human 4-1BB on CHO-K1 cells; experiment: FACS; FIG. 11K
Target sequence in this assay (Q07011 24-255): as above

[10] = biological target: T1, human 4-1BB on CHO-K1 cells; experiment: FACS blocking of 4-1BBL; remark: listed apart in the source
Target sequence in this assay (Q07011 24-255): as above

[11] = biological target: T2, cynomolgus monkey 4-1BB on CHO-K1 cells; experiment: FACS; FIG. 12L
[12] = biological target: T1, human 4-1BB on CHO-K1 cells; experiment: FACS; FIG. 11M
Target sequence in this assay (Q07011 24-255): as above

[13] = biological target: T2, cynomolgus monkey 4-1BB on CHO-K1 cells; experiment: FACS; FIG. 12C
[14] = biological target: T1, human 4-1BB on CHO-K1 cells; experiment: FACS; remark: listed apart in the source
Target sequence in this assay (Q07011 24-255): as above

[15] = biological target: T2, cynomolgus monkey 4-1BB on CHO-K1 cells; experiment: FACS; FIG. 12E
[16] = biological target: T2, cynomolgus monkey 4-1BB on CHO-K1 cells; experiment: FACS; FIG. 12F

B1: PR001775 (antibody, V domains shown)
VH: EVQLLESGGGLVQSGGSLRLSCAASGFTFSSYAMSWVRQAPGKGLEWVSAISGSGGSTDYADSVKGRFTISRDNSTNTLYLQMNSLRAEDTAVYYCAKERAYDYSNYVDFDYWGQGTLVTVSS
[1]
  EC50: 0.477 nM
[2]
  EC50: 2.66 nM
[3]
  IC50: 2.4 nM

B2: PR001776 (antibody, V domains shown)
VH: EVQLLESGGGLVQPGGSLRLSCAASGFTFSSYAMSWVRQAPEKGLEWVSAISSSGGSTYYADSVKGRFTISRDNSKNTLYLQMNSLRAEDTAVYYCAKDGVTTPSYYYYYDMDVWGQGTTVTVSS
[1]
  EC50: 2.43 nM
[2]
  EC50: 18.1 nM
[3]
  IC50: 10.9 nM

B3: PR001758 (antibody, V domains shown)
VH: EVQLLESGGGLVQLGGSLRLSCAASGFTFSRYAMTWVRQAPEKGLEWVSSISGSGDDTYYGDSVKGRFTISRDNSQNTVYLQMNSLRAEDTAVYFCAKEKAGTTGDYYYNVDVWGQGTTVTVSS
[4]
  EC50: 0.212 nM
[5]
  EC50: 0.575 nM
[6]
  IC50: 3.61 nM

B4: PR001764 (antibody, V domains shown)
VH: EVQLLESGGGLVQPGGSLRLSCAASGFTFSSYAMSWVRQAPEKGLEWVSAISGGGGSTYYADSVKGRFTISRDNSKNTLYLQMDSLKAEDTAVYYCAKEGTTETDDYHYNMDVWGQGTTVTVSS
[1]
  EC50: 0.249 nM
[7]
  EC50: 5.33 nM
[6]
  IC50: 2.79 nM

B5: PR001760 (antibody, V domains shown)
VH: EVQLVESGGGVVQPGGSLRLSCAASGFTFSNYAMTWVRQAPEKGLEWVSSISGSGVSTYYADSVKGRFTISRDNSKNTLYLQMTRLTAEDTAVYFCAKEGSSETDDHYYNVDVWGQGTTVTVSS
[4]
  EC50: 0.198 nM
[5]
  EC50: 0.443 nM
[6]
  IC50: 2.05 nM

B6: PR001781 (antibody, V domains shown)
VH: EVQLLESGGGLVQLGGSLRLSCAASGFTFSSYAMTWVRQAPEKGLEWVSSISGSGGNTYYADSVKGRFTISRDNSKNTLYLQMNSLRAEDTAVYYCAKERTGTTGDYYYNVDVWGQGTTVTVSS
[1]
  EC50: 0.492 nM
[2]
  EC50: 3.1 nM

B7: PR007292 (antibody, V domains shown)
VH: EVQLVESGGGLVKPGGSLRLSCAASGFTFSDYYMSWIRQAPGKGLEWVSYISSSGSTIDYADSVKGRFTISRDNAKNSLYLQMNSLRAEDTAVYYCAREREEVAGTLDYDNWGQGTLVTVSS
[8]
  EC50: 4.88 nM
[9]
  EC50: 1.81 nM
[10]
  IC50: 5.37 nM

B8: PR001780 (antibody, V domains shown)
VH: EVQLLESGGGLIQPGGSLRLSCAASGFTFSSFAMTWVRQAPGKGLEWVSTISGSGDNTYYADSVKGRFTISRDNSKNTLYLQMNSLRAEDTAVYFCAKEDTAVASDYYYNIDVWGQGTTVTVSS
[1]
  EC50: 0.708 nM
[2]
  EC50: 2.99 nM
[3]
  IC50: 6.33 nM

B9: PR007294 (antibody, V domains shown)
VH: EVQLVESGGGLVKPGGSLRLSCVASGFTFSDYYMSWFRQAPGKGLEWVSYISGSGTTIDYADSVKGRFTISRDNAKNSLYLQMNSLRAEDTAVYYCAREREPVAGTLDFDNWGQGTLVTVSS
[8]
  EC50: 1.99 nM
[9]
  EC50: 1.14 nM
[10]
  IC50: 6.61 nM

B10: PR007300 (antibody, V domains shown)
VH: EVQLVESGGGLVKPGGSLRLSCTTSGFTFSDYYMNWVRQAPGKGLEWVSYISNNGSTIYYADSVKGRFTISRDNAKNSLYLQMNSLRAEDTAVYYCARVRPGGSGNYWDWFDPWGQGTPVTVSS
[11]
  EC50: 1.94 nM
[12]
  EC50: 2.77 nM
[10]
  IC50: 2.87 nM

B11: PR007299 (antibody, V domains shown)
VH: EVQLVESGGGLVKPGGSLRLSCAASGFTFSDYQMSWLRQAPGKGLEWVSYISSSGRTIYYADSVKGRFTISRDNAKNSVSLQMNSLRAEDTAVYYCAREGRFFPGQGTPVTVSS
[11]
  EC50: 118 nM
[12]
  EC50: 17 nM
[10]
  IC50: 23.1 nM

B12: PR001766 (antibody, V domains shown)
VH: EVQLLESGGGLVQPGGSLRLSCAASGFTFSSYAMSWGRQAPGKGLEWVSSISGSGGSTYYADSVKGRFTISRDNSKNTLYLQMNSLRAEDTAVYYCAKEKTGTTGDYYYDMDVWGQGTTVTVSS
[1]
  EC50: 0.399 nM
[7]
  EC50: 4.99 nM
[6]
  IC50: 4.34 nM

B13: PR007298 (antibody, V domains shown)
VH: EVQLVESGGGLVKPGGSLRLSCAASGFTFSDYYMSWVRQAPGKGLEWVSYISSSGSTIDYADSVKGRFTISRDNAKNSLFLEMNSLRAEDTAVYYCAREREEVAGTLDFDNWGQGTLVTVSS
[11]
  EC50: 2.33 nM
[12]
  EC50: 3.71 nM
[10]
  IC50: 6.7 nM

B14: PR001768 (antibody, V domains shown)
VH: EVQLLESGGGLVQPGGSLRLSCAASGFTFSNYAMTWVRQAPGKGLEWVSSISGSGDSTYYADSVKGRFTISRDNSKNTLYLQMNSLRAEDTAVYYCAKEGTGTTSDYYYNVDVWGQGTTVTVSS
[1]
  EC50: 0.846 nM
[13]
  EC50: 6.97 nM

B15: PR001763 (antibody, V domains shown)
VH: EVQLLESGGGLVQPGGSLRLSCTASGFTFSNYAMSWVRQAPEKGLEWVSSISGSGGSTFYADSVKGRFTISRDNSKNTLYLQMNRLTAEDTAVYYCAKEGSNGTDDYHYDIDVWGQGTTVTVSS
[4]
  EC50: 0.616 nM
[7]
  EC50: ~0.411 nM
[6]
  IC50: 4.99 nM

B16: PR001759 (antibody, V domains shown)
VH: EVQLLESGGGLVQPGGSLRLSCAASGFTFSSYAMSWFRQPPETGLQWVSSIGGSGGDTYYADSVKGRFTISRDNSKNTLYLQMNSLRAEDTAVYYCAKEGSNGTDDNYYDVDVWGQGTTVTVSS
[4]
  EC50: 0.274 nM
[5]
  EC50: 0.788 nM
[6]
  IC50: 2.31 nM

B17: PR001767 (antibody, V domains shown)
VH: EVQLVETGGGLIQPGGSLRLSCAASGFTVSSNYMSWVRQAPGKGLEWVSVIYSDGSTYYADSVKGRFTISRDNSKNTLYLQMNSLRAEDTAVYYCARDRYYGSGNYPTAYYGMDVRGQGTTVTVSS
[1]
  EC50: 5.87 nM
[7]
  EC50: 25 nM

B18: PR001834 (antibody, V domains shown)
VH: EVQLLESGGGLVQPGGSLRLSCAASGFTFSGYAMTWVRQPPEKGLEWVSSISGSGNNTFYADSVKGRFTISRDNSKNTLYLQMNSLRAEDTAVYYCAKEGTTETDDYHYNMDVWGQGTTVTVSS
[14]
  EC50: 0.449 nM
[15]
  EC50: 3.46 nM
[3]
  IC50: 2.93 nM

B19: PR001771 (antibody, V domains shown)
VH: EVQLLESGGGLVQPGGSLRLSCAASGFTFSNYAMTWVRQPPGKGLEWVSSISGSGGSTYYADSVKGRFTISRDNSKNTLYLQMNSLRAEDTAVYYCAKEGTGTTSDYYYNVDVWGQGTTVTVSS
[1]
  EC50: 0.532 nM
[13]
  EC50: 3.77 nM
[3]
  IC50: 21.6 nM

B20: PR001842 (antibody, V domains shown)
VH: EVQLLESGGGLVQPGGSLRLSCAASGFTFSSYAMSWGRQAPGKGLEWVSAISGSGGSTYYADSVKGRFTISRDNSKNTLYLHMNSLRAEDTAVYYCAKEKVATTGDYYYDMDVWGQGTTVTVSS
[14]
  EC50: 0.537 nM
[16]
  EC50: 2.29 nM

B21: PR001774 (antibody, V domains shown)
VH: EVQLVESGGGLVQPGGSLRLSCAASGFTFSSFAMTWVRQAPEKGLEWVSTISGSGDTTYYADSVKGRFTISRDSSKNTLYLQMNSLRAEDSAVYFCAKEATAMASDYYYGVDVWGQGTTVTVSS
[1]
  EC50: 1.27 nM
[13]
  EC50: 6.73 nM
[3]
  IC50: ~2.12 nM

B22: PR007293 (antibody, V domains shown)
VH: EVQLVESGGGLVKPGGSLRLSCAASGFTFSDYYMSWFRQAPGKGLEWVSYINSSGSTIYYEYSVKGRFTISRDNAKNSLYLQMNSLRAEDTAVYYCAREREEVAGTLDFDYWGQGTLVTVSS
[8]
  EC50: 2.1 nM
[9]
  EC50: 2.25 nM
[10]
  IC50: 11.2 nM
